7 molecules from article PMC7367873, “Dissecting the sequence determinants for dephosphorylation by the catalytic subunits of phosphatases PP1 and PP2A” (Nature Communications, 2020) can be followed below.

Sequences and labels used below:
B1: PABPC4 (protein, UniProt Q13310 1-644, looked up)
Polyadenylate-binding protein …: MNAAASSYPMASLYVGDLHSDVTEAMLYEKFSPAGPVLSIRVCRDMITRRSLGYAYVNFQQPADAERALDTMNFDVIKGKPIRIMWSQRDPSLRKSGVGNVFIKNLDKSIDNKALYDTFSAFGNILSCKVVCDENGSKGYAFVHFETQEAADKAIEKMNGMLLNDRKVFVGRFKSRKEREAELGAKAKEFTNVYIKNFGEEVDDESLKELFSQFGKTLSVKVMRDPNGKSKGFGFVSYEKHEDANKAVEEMNGKEISGKIIFVGRAQKKVERQAELKRKFEQLKQERISRYQGVNLYIKNLDDTIDDEKLRKEFSPFGSITSAKVMLEDGRSKGFGFVCFSSPEEATKAVTEMNGRIVGSKPLYVALAQRKEERKAHLTNQYMQRVAGMRALPANAILNQFQPAAGGYFVPAVPQAQGRPPYYTPNQLAQMRPNPRWQQGGRPQGFQGMPSAIRQSGPRPTLRHLAPTGSECPDRLAMDFGGAGAAQQGLTDSCQSGGVPTAVQNLAPRAAVAAAAPRAVAPYKYASSVRSPHPAIQPLQAPQPAVHVQGQEPLTASMLAAAPPQEQKQMLGERLFPLIQTMHSNLAGKITGMLLEIDNSELLHMLESPESLRSKVDEAVAVLQAHHAKKEAAQKVGAVAAATS
B2: PHLDB2 (protein, UniProt Q86SQ0 1-1253, looked up)
Pleckstrin homology-like …: MEEHSYIQKELDLQNGSLEEDSVVHSVENDSQNMMESLSPKKYSSSLRFKANGDYSGSYLTLSQPVPAKRSPSPLGTSVRSSPSLAKIQGSKQFSYDGTDKNIPMKPPTPLLNTTSSLSGYPLGRADFDHYTGRDSERALRLSEKPPYSKYSSRHKSHDNVYSLGGLEGRKASGSLLAMWNGSSLSDAGPPPISRSGAASMPSSPKQARKMSIQDSLALQPKLTRHKELASENINLRTRKYSSSSLSHMGAYSRSLPRLYRATENQLTPLSLPPRNSLGNSKRTKLGEKDLPHSVIDNDNYLNFSSLSSGALPYKTSASEGNPYVSSTLSVPASPRVARKMLLASTSSCASDDFDQASYVGTNPSHSLLAGESDRVFATRRNFSCGSVEFDEADLESLRQASGTPQPALRERKSSISSISGRDDLMDYHRRQREERLREQEMERLERQRLETILSLCAEYTKPDSRLSTGTTVEDVQKINKELEKLQLSDEESVFEEALMSPDTRYRCHRKDSLPDADLASCGSLSQSSASFFTPRSTRNDELLSDLTRTPPPPSSTFPKASSESSYLSILPKTPEGISEEQRSQELAAMEETRIVILNNLEELKQKIKDINDQMDESFRELDMECALLDGEQKSETTELMKEKEILDHLNRKIAELEKNIVGEKTKEKVKLDAEREKLERLQELYSEQKTQLDNCPESMREQLQQQLKRDADLLDVESKHFEDLEFQQLEHESRLDEEKENLTQQLLREVAEYQRNIVSRKEKISALKKQANHIVQQAQREQDHFVKEKNNLIMMLQREKENLCNLEKKYSSLSGGKGFPVNPNTLKEGYISVNEINEPCGNSTNLSPSTQFPADADAVATEPATAVLASQPQSKEHFRSLEERKKQHKEGLYLSDTLPRKKTTSSISPHFSSATMGRSITPKAHLPLGQSNSCGSVLPPSLAAMAKDSESRRMLRGYNHQQMSEGHRQKSEFYNRTASESNVYLNSFHYPDHSYKDQAFDTLSLDSSDSMETSISACSPDNISSASTSNIARIEEMERLLKQAHAEKTRLLESREREMEAKKRALEEEKRRREILEKRLQEETSQRQKLIEKEVKIRERQRAQARPLTRYLPVRKEDFDLRSHVETAGHNIDTCYHVSITEKTCRGFLIKMGGKIKTWKKRWFVFDRNKRTFSYYADKHETKLKGVIYFQAIEEVYYDHLKNANKSPNPLLTFSVKTHDRIYYMVAPSPEAMRIWMDVIVTGAEGYTHFLL
B3: HNRNPD (protein, UniProt Q14103 2-355, looked up)
Heterogeneous nuclear …: SEEQFGGDGAAAAATAAVGGSAGEQEGAMVAATQGAAAAAGSGAGTGGGTASGGTEGGSAESEGAKIDASKNEEDEGHSNSSPRHSEAATAQREEWKMFIGGLSWDTTKKDLKDYFSKFGEVVDCTLKLDPITGRSRGFGFVLFKESESVDKVMDQKEHKLNGKVIDPKRAKAMKTKEPVKKIFVGGLSPDTPEEKIREYFGGFGEVESIELPMDNKTNKRRGFCFITFKEEEPVKKIMEKKYHNVGLSKCEIKVAMSKEQYQQQQQWGSRGGFAGRARGRGGGPSQNWNQGYSNYWNQGYGNYGYNSQGYGGYGGYDYTGYNNYYGYGDYSNQQSGYGKVSRRGGHQNSYKPY
B4: RCN1 (protein, UniProt Q15293 30-331, looked up)
Reticulocalbin-1: KPTVRKERVVRPDSELGERPPEDNQSFQYDHEAFLGKEDSKTFDQLTPDESKERLGKIVDRIDNDGDGFVTTEELKTWIKRVQKRYIFDNVAKVWKDYDRDKDDKISWEEYKQATYGYYLGNPAEFHDSSDHHTFKKMLPRDERRFKAADLNGDLTATREEFTAFLHPEEFEHMKEIVVLETLEDIDKNGDGFVDQDEYIADMFSHEENGPEPDWVLSEREQFNEFRDLNKDGKLDKDEIRHWILPQDYDHAQAEARHLVYESDKNKDEKLTKEEILENWNMFVGSQATNYGEDLTKNHDEL
B5: DHX29 (protein, UniProt Q7Z478 1-1369, looked up)
ATP-dependent RNA helicase …: MGGKNKKHKAPAAAVVRAAVSASRAKSAEAGIAGEAQSKKPVSRPATAAAAAAGSREPRVKQGPKIYSFNSTNDSSGPANLDKSILKVVINNKLEQRIIGVINEHKKQNNDKGMISGRLTAKKLQDLYMALQAFSFKTKDIEDAMTNTLLYGGDLHSALDWLCLNLSDDALPEGFSQEFEEQQPKSRPKFQSPQIQATISPPLQPKTKTYEEDPKSKPKKEEKNMEVNMKEWILRYAEQQNEEEKNENSKSLEEEEKFDPNERYLHLAAKLLDAKEQAATFKLEKNKQGQKEAQEKIRKFQREMETLEDHPVFNPAMKISHQQNERKKPPVATEGESALNFNLFEKSAAATEEEKDKKKEPHDVRNFDYTARSWTGKSPKQFLIDWVRKNLPKSPNPSFEKVPVGRYWKCRVRVIKSEDDVLVVCPTILTEDGMQAQHLGATLALYRLVKGQSVHQLLPPTYRDVWLEWSDAEKKREELNKMETNKPRDLFIAKLLNKLKQQQQQQQQHSENKRENSEDPEESWENLVSDEDFSALSLESANVEDLEPVRNLFRKLQSTPKYQKLLKERQQLPVFKHRDSIVETLKRHRVVVVAGETGSGKSTQVPHFLLEDLLLNEWEASKCNIVCTQPRRISAVSLANRVCDELGCENGPGGRNSLCGYQIRMESRACESTRLLYCTTGVLLRKLQEDGLLSNVSHVIVDEVHERSVQSDFLLIILKEILQKRSDLHLILMSATVDSEKFSTYFTHCPILRISGRSYPVEVFHLEDIIEETGFVLEKDSEYCQKFLEEEEEVTINVTSKAGGIKKYQEYIPVQTGAHADLNPFYQKYSSRTQHAILYMNPHKINLDLILELLAYLDKSPQFRNIEGAVLIFLPGLAHIQQLYDLLSNDRRFYSERYKVIALHSILSTQDQAAAFTLPPPGVRKIVLATNIAETGITIPDVVFVIDTGRTKENKYHESSQMSSLVETFVSKASALQRQGRAGRVRDGFCFRMYTRERFEGFMDYSVPEILRVPLEELCLHIMKCNLGSPEDFLSKALDPPQLQVISNAMNLLRKIGACELNEPKLTPLGQHLAALPVNVKIGKMLIFGAIFGCLDPVATLAAVMTEKSPFTTPIGRKDEADLAKSALAMADSDHLTIYNAYLGWKKARQEGGYRSEITYCRRNFLNRTSLLTLEDVKQELIKLVKAAGFSSSTTSTSWEGNRASQTLSFQEIALLKAVLVAGLYDNVGKIIYTKSVDVTEKLACIVETAQGKAQVHPSSVNRDLQTHGWLLYQEKIRYARVYLRETTLITPFPVLLFGGDIEVQHRERLLSIDGWIYFQAPVKIAVIFKQLRVLIDSVLRKKLENPKMSLENDKILQIITELIKTENN
B6: SLC2A1 (protein, UniProt P11166 1-492, looked up)
Solute carrier family 2, …: MEPSSKKLTGRLMLAVGGAVLGSLQFGYNTGVINAPQKVIEEFYNQTWVHRYGESILPTTLTTLWSLSVAIFSVGGMIGSFSVGLFVNRFGRRNSMLMMNLLAFVSAVLMGFSKLGKSFEMLILGRFIIGVYCGLTTGFVPMYVGEVSPTALRGALGTLHQLGIVVGILIAQVFGLDSIMGNKDLWPLLLSIIFIPALLQCIVLPFCPESPRFLLINRNEENRAKSVLKKLRGTADVTHDLQEMKEESRQMMREKKVTILELFRSPAYRQPILIAVVLQLSQQLSGINAVFYYSTSIFEKAGVQQPVYATIGSGIVNTAFTVVSLFVVERAGRRTLHLIGLAGMAGCAILMTIALALLEQLPWMSYLSIVAIFGFVAFFEVGPGPIPWFIVAELFSQGPRPAAIAVAGFSNWTSNFIVGMCFQYVEQLCGPYVFIIFTVLLVLFFIFTYFKVPETKGRTFDEIASGFRQGGASQSDKTPEELFHPLGADSQV
B7: COPA (protein, UniProt P53621 1-1224, looked up)
Coatomer subunit alpha: MLTKFETKSARVKGLSFHPKRPWILTSLHNGVIQLWDYRMCTLIDKFDEHDGPVRGIDFHKQQPLFVSGGDDYKIKVWNYKLRRCLFTLLGHLDYIRTTFFHHEYPWILSASDDQTIRVWNWQSRTCVCVLTGHNHYVMCAQFHPTEDLVVSASLDQTVRVWDISGLRKKNLSPGAVESDVRGITGVDLFGTTDAVVKHVLEGHDRGVNWAAFHPTMPLIVSGADDRQVKIWRMNESKAWEVDTCRGHYNNVSCAVFHPRQELILSNSEDKSIRVWDMSKRTGVQTFRRDHDRFWVLAAHPNLNLFAAGHDGGMIVFKLERERPAYAVHGNMLHYVKDRFLRQLDFNSSKDVAVMQLRSGSKFPVFNMSYNPAENAVLLCTRASNLENSTYDLYTIPKDADSQNPDAPEGKRSSGLTAVWVARNRFAVLDRMHSLLIKNLKNEITKKVQVPNCDEIFYAGTGNLLLRDADSITLFDVQQKRTLASVKISKVKYVIWSADMSHVALLAKHAIVICNRKLDALCNIHENIRVKSGAWDESGVFIYTTSNHIKYAVTTGDHGIIRTLDLPIYVTRVKGNNVYCLDRECRPRVLTIDPTEFKFKLALINRKYDEVLHMVRNAKLVGQSIIAYLQKKGYPEVALHFVKDEKTRFSLALECGNIEIALEAAKALDDKNCWEKLGEVALLQGNHQIVEMCYQRTKNFDKLSFLYLITGNLEKLRKMMKIAEIRKDMSGHYQNALYLGDVSERVRILKNCGQKSLAYLTAATHGLDEEAESLKETFDPEKETIPDIDPNAKLLQPPAPIMPLDTNWPLLTVSKGFFEGTIASKGKGGALAADIDIDTVGTEGWGEDAELQLDEDGFVEATEGLGDDALGKGQEEGGGWDVEEDLELPPELDISPGAAGGAEDGFFVPPTKGTSPTQIWCNNSQLPVDHILAGSFETAMRLLHDQVGVIQFGPYKQLFLQTYARGRTTYQALPCLPSMYGYPNRNWKDAGLKNGVPAVGLKLNDLIQRLQLCYQLTTVGKFEEAVEKFRSILLSVPLLVVDNKQEIAEAQQLITICREYIVGLSVETERKKLPKETLEQQKRICEMAAYFTHSNLQPVHMILVLRTALNLFFKLKNFKTAATFARRLLELGPKPEVAQQTRKILSACEKNPTDAYQLNYDMHNPFDICAASYRPIYRGKPVEKCPLSGACYSPEFKGQICRVTTVTEIGKDVIGLRISPLQFR

The first test has as its system GFP-14-3-3β and its binding proteins. As to the kind of experiment: GFP-14-3-3β co-IP with LC-MS/MS label-free quantification, untreated versus PP1c-treated. Further details: species or system human. The following applies: PP1 vs untreated; LFQ intensities; 3 replicates each.
For the molecule B1, the “Difference (log2), PP1 vs untreated” value is 0.5259 log2.
Regarding B2, the “Difference (log2), PP1 vs untreated” value was determined as 0.5277 log2.
Consider B3, for which the “Difference (log2), PP1 vs untreated” value was 0.5387 log2.
As for B4, the “Difference (log2), PP1 vs untreated” value was 0.5407 log2.
For the molecule B5, the “Difference (log2), PP1 vs untreated” value was 0.5459 log2.
For B6, the “Difference (log2), PP1 vs untreated” value amounted to 0.5451 log2.
The same measure, in the same setting: under B7 stands 0.5643 log2.

The test system of another test is GFP-14-3-3β. Kind of test: GFP-14-3-3β co-IP with LC-MS/MS, untreated GFP-14-3-3β versus GFP control (14-3-3 interactome). It counts as binding, human. The note with it: untreated vs GFP; LFQ intensities; 3 replicates each.
For B1, the “Difference (log2), untreated vs GFP” value came to 2.4022 log2.
In the case of B2, the “Difference (log2), untreated vs GFP” value is 1.653 log2.
The same measure, in the same setting: in the case of B3 it was 0.1919 log2.
Still for that read-out and setting: in the case of B4 it was -0.5528 log2.
On the same count and under the same terms, in the case of B5 it was 1.239 log2.
For B6, the “Difference (log2), untreated vs GFP” value was -0.3989 log2.
On to B7, for which the “Difference (log2), untreated vs GFP” value is -0.09761 log2.
